Data taken from patent US20210122824A1 (ADAGENE, published 2021).

Columns and labels:
[1] = biological target: T1, human TIM3 expressed on HEK293F cells (human, UniProt Q8TDQ0 22-301); assay: flow cytometry, HEK293F cells transiently expressing the target, 100 nM antibody, PE anti-human Fc; Mean (PE-A against FITC-A, GFP surrogate)
T1 construct: whole, on cells

[2] = biological target: T2, human CTLA4 expressed on HEK293F cells (human, UniProt P16410 36-223); assay: as above
T2 construct: whole, on cells
T2 sequence (P16410 36-223): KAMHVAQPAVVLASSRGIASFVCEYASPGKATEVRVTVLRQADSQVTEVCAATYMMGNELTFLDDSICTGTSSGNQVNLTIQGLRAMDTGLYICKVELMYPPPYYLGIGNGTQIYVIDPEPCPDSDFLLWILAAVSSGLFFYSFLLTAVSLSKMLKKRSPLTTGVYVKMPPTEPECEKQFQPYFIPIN

[3] = biological target: T3, human LAG3 expressed on HEK293F cells (human, UniProt P18627 23-525); assay: as above
T3 construct: whole, on cells
T3 sequence (looked up): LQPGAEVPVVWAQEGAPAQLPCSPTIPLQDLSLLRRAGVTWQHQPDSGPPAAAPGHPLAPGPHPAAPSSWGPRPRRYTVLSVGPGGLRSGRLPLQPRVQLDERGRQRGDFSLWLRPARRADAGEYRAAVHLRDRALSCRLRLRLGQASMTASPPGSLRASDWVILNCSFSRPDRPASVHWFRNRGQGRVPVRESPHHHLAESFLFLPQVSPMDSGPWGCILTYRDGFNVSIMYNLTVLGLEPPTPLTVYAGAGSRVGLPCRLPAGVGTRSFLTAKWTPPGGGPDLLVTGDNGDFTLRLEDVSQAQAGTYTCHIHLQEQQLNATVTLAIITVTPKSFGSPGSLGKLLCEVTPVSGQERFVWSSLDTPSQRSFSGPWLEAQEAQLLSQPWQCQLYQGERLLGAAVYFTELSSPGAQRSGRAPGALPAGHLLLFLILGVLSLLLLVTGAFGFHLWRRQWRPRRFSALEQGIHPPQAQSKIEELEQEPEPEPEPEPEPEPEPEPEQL

[4] = biological target: T4, human PD-L1 expressed on cell surface (human, UniProt Q9NZQ7 19-290); assay: as above
T4 construct: whole, on cells; also called full-length human PD-L1; cell surface PD-L1
T4 sequence (Q9NZQ7 19-290): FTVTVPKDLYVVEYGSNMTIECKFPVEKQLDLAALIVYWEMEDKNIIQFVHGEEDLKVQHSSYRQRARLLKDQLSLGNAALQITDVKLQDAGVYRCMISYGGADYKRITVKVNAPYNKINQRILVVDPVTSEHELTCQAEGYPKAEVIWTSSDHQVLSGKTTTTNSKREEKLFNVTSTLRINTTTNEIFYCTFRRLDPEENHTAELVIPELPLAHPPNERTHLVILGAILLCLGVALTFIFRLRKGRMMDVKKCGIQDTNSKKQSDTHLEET

[5] = biological target: T5, human PD1 expressed on HEK293F cells (human, UniProt Q15116 25-288); assay: as above
T5 construct: whole, on cells
T5 sequence (Q15116 25-288): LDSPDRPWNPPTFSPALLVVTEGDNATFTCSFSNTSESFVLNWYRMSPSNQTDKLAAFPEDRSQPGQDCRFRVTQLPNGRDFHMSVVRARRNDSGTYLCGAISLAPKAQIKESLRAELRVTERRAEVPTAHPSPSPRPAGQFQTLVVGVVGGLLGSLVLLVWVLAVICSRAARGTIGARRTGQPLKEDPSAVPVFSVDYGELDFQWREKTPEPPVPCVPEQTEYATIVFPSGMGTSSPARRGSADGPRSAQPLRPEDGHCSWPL

[6] = biological target: T6, rhesus PD-L1 expressed on HEK293F cells (rhesus, UniProt F6VEW6 19-290); assay: as above
T6 construct: whole, on cells

[7] = biological target: T4, human PD-L1 expressed on cell surface; assay: flow cytometry on stable cell line 293T-002 expressing PD-L1; 293T-002 cells expressing PD-L1, flow cytometry
[8] = biological target: T4, human PD-L1 expressed on cell surface; assay: cell-based or functional assay
[9] = biological target: T7, mouse PD-L1-Fc fusion protein (mouse, UniProt Q9EP73 19-238, limits assumed); assay: SPR (Biacore T200), PD-L1-Fc immobilized (about 500 RU), IgG in solution
T7 construct: not shown: Fc part
T7 sequence (Q9EP73 19-238 limits assumed): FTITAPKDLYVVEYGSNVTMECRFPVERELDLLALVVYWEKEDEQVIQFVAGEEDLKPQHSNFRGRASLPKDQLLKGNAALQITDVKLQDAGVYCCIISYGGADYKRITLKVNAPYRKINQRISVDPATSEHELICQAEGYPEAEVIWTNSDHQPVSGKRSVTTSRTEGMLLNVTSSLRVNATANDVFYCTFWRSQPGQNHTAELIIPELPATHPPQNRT

[10] = biological target: T8, rat PD-L1-Fc fusion protein (Sino Biological cat #80450-R08H) (rat); assay: as above
T8 construct: text calls all four immobilized proteins PD-L1-Fc fusion proteins

[11] = biological target: T9, human PD-L1-Fc fusion protein (Sino Biological Cat #10084-H02H) (human, UniProt Q9NZQ7 19-239); assay: as above
T9 construct: bought; not shown: Fc part of the bought fusion
T9 sequence (Q9NZQ7 19-239 limits assumed): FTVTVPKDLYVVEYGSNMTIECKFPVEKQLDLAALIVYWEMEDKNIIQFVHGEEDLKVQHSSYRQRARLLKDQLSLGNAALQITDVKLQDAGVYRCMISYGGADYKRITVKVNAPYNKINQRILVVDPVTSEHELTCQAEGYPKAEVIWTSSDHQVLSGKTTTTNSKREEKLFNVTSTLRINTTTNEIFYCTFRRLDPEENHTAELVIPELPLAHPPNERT

[12] = biological target: T10, rhesus PD-L1-Fc fusion protein (Sino Biological cat #90251-C02H) (rhesus, UniProt F6PJN1 19-239); assay: as above
T10 construct: not shown: Fc part

[13] = biological target: T9, human PD-L1-Fc fusion protein (Sino …); assay: SPR (Biacore T200), human PD-L1-Fc immobilized, IgG in solution
[14] = biological target: T9, human PD-L1-Fc fusion protein (Sino …); assay: SPR (Biacore T200), human PD-L1-Fc immobilized (300 RU), IgG in solution
[15] = biological target: T4, human PD-L1 expressed on cell surface; assay: cell ELISA on HCC827 cells fixed with 4% paraformaldehyde, absorbance at 450 nm
[16] = biological target: T4, human PD-L1 expressed on cell surface; assay: blocking by flow cytometry, HEK293F cells expressing full-length human PD-L1, 100 nM antibody then 100 nM biotinylated PD1-His (blocked ligand), Alexa fluor 633 streptavidin; isotype control panel Q2 35.1%
[17] = biological target: T9, human PD-L1-Fc fusion protein (Sino …); assay: competition ELISA, PD1-Fc (1 ug/mL) coated, biotinylated PD-L1-Fc mixed with antibody, HRP neutravidin; blocked ligand PD1-Fc
[18] = biological target: T4, human PD-L1 expressed on cell surface; assay: flow cytometry on cells expressing human PD-L1 (legend of FIG. 5)

Mean [1]: 8100
Mean [2]: 4900
Mean [3]: 5850
Mean [4]: 170000
Mean [5]: 6980
Mean [6]: 184000
EC50 [7]: 1.08 nM
Relative luminescence units (RLU), Promega PD1/PD-L1 reporter gene assay; EC50 [8]: 0.39 nM
Kd [9]: 0.00186 nM
koff [9]: 2.06e-05 s⁻¹
kon [9]: 1.11e+07 M⁻¹ s⁻¹
Kd [10]: 0.0209 nM
koff [10]: 0.000106 s⁻¹
kon [10]: 5.07e+06 M⁻¹ s⁻¹
Kd [11]: 0.00619 nM
koff [11]: 2.97e-05 s⁻¹
kon [11]: 4.8e+06 M⁻¹ s⁻¹
Kd [12]: 0.00185 nM
koff [12]: 7.27e-06 s⁻¹
kon [12]: 3.93e+06 M⁻¹ s⁻¹
Kd [13]: < 0.01 nM
Kd [14]: 0.00863 nM
koff [14]: 5.73e-05 s⁻¹
kon [14]: 6.64e+06 M⁻¹ s⁻¹
EC50 [15]: 0.3 nM
Q2 (percent of cells positive for GFP and for the APC signal of PD1-His, antibody present) [16]: 0.27%
IC50 (read off the curve) [17]: ~6 nM
EC50 [18]: ~1 nM
B1: TY21421 (antibody, V domains shown)
VH: EVQLVESGGGLVQPGGSLRLSCAASGYSISSGYYWGWIRQAPGKGLEWIGIIYPSGGGTNYAQKFQGRVTISRDNSKNTLYLQLNSLRAEDTAVYYCARGGGLGFDYWGQGTLVTVSS
VL: DIQLTQSPSSLSASVGDRVTITCRASQSIPSFLNWYQQKPGKAPKLLIYAASSLQSGVPSRFSGSGSGTDFTLTISSLQPEDFATYYCQHYISWPRQFTFGQGTKVEIKR
notes: IgG1 (wild type) made from Fab B15041, from HEK293F cells
